Laboratory results taken from article PMC12187939.

Assays:
[1] = target: CBP, A549 nuclear extract (UniProt Q92793); experiment: FLAG IP/MS; conditions: nuclear fractions from A549 cells; four individual replicates; read off a plot
[2] = target: p300, A549 nuclear extract (UniProt Q09472); experiment: FLAG IP/MS; conditions: nuclear fractions from A549 cells; four individual replicates; read off a plot
UniProt Q09472, sequence (Q09472 whole entry): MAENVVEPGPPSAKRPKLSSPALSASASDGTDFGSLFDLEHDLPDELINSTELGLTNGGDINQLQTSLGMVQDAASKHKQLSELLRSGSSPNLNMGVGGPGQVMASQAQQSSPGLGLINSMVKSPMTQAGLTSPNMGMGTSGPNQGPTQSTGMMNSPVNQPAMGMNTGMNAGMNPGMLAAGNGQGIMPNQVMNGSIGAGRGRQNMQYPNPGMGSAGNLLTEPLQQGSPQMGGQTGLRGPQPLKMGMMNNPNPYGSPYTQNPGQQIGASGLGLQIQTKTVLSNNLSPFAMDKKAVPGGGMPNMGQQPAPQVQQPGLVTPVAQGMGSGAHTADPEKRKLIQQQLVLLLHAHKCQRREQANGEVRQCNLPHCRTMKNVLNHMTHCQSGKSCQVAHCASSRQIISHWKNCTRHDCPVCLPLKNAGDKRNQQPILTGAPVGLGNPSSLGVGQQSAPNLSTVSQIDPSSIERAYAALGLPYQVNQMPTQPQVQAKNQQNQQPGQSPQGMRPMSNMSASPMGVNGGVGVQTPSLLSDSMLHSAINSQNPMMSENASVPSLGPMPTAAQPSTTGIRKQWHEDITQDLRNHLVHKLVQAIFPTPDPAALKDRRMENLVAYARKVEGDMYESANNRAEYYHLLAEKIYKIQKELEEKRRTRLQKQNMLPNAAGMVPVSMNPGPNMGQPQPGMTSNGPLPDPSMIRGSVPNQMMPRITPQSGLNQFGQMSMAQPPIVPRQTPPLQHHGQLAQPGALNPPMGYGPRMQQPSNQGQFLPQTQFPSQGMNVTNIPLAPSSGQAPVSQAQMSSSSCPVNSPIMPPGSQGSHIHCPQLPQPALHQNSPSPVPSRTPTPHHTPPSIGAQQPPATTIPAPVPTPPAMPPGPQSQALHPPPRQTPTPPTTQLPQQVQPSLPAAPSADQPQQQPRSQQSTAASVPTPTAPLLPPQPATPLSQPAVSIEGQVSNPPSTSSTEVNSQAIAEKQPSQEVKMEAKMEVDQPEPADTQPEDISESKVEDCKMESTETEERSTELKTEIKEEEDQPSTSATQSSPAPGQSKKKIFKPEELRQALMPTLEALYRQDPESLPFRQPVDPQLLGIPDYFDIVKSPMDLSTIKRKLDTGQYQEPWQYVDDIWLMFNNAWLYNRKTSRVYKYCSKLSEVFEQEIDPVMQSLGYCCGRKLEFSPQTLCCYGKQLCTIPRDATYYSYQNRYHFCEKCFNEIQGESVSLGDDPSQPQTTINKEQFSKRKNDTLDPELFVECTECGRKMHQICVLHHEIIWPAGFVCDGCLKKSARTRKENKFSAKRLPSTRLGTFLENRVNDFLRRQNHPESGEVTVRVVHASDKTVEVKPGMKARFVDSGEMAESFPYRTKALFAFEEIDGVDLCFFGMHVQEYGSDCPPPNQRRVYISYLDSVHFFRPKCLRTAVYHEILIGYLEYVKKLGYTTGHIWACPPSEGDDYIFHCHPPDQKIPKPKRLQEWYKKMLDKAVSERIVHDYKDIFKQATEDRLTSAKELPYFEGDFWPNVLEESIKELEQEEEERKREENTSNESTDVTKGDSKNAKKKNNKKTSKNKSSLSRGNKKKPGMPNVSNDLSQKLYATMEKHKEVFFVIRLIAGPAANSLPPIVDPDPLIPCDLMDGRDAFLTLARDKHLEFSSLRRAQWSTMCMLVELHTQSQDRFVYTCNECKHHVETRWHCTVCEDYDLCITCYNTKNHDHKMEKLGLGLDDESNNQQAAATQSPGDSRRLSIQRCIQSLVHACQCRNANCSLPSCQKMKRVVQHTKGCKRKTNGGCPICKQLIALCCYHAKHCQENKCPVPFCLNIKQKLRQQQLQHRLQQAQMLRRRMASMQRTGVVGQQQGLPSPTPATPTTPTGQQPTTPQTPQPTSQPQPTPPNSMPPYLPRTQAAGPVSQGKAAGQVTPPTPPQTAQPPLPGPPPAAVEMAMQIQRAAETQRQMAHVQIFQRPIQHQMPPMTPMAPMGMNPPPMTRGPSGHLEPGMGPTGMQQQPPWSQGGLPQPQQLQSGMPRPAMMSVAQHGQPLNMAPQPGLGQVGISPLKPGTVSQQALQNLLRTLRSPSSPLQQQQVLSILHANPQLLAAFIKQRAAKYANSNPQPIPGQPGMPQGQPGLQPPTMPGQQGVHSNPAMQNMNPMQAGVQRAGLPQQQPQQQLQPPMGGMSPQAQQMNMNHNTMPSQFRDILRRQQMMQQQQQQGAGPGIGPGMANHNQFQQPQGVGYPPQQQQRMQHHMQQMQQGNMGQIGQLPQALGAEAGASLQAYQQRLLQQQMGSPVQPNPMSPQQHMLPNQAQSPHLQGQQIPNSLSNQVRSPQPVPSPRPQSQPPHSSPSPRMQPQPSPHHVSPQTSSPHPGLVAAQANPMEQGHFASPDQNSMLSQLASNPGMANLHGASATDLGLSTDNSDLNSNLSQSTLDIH

UniProt Q92793, sequence (Q92793 whole entry): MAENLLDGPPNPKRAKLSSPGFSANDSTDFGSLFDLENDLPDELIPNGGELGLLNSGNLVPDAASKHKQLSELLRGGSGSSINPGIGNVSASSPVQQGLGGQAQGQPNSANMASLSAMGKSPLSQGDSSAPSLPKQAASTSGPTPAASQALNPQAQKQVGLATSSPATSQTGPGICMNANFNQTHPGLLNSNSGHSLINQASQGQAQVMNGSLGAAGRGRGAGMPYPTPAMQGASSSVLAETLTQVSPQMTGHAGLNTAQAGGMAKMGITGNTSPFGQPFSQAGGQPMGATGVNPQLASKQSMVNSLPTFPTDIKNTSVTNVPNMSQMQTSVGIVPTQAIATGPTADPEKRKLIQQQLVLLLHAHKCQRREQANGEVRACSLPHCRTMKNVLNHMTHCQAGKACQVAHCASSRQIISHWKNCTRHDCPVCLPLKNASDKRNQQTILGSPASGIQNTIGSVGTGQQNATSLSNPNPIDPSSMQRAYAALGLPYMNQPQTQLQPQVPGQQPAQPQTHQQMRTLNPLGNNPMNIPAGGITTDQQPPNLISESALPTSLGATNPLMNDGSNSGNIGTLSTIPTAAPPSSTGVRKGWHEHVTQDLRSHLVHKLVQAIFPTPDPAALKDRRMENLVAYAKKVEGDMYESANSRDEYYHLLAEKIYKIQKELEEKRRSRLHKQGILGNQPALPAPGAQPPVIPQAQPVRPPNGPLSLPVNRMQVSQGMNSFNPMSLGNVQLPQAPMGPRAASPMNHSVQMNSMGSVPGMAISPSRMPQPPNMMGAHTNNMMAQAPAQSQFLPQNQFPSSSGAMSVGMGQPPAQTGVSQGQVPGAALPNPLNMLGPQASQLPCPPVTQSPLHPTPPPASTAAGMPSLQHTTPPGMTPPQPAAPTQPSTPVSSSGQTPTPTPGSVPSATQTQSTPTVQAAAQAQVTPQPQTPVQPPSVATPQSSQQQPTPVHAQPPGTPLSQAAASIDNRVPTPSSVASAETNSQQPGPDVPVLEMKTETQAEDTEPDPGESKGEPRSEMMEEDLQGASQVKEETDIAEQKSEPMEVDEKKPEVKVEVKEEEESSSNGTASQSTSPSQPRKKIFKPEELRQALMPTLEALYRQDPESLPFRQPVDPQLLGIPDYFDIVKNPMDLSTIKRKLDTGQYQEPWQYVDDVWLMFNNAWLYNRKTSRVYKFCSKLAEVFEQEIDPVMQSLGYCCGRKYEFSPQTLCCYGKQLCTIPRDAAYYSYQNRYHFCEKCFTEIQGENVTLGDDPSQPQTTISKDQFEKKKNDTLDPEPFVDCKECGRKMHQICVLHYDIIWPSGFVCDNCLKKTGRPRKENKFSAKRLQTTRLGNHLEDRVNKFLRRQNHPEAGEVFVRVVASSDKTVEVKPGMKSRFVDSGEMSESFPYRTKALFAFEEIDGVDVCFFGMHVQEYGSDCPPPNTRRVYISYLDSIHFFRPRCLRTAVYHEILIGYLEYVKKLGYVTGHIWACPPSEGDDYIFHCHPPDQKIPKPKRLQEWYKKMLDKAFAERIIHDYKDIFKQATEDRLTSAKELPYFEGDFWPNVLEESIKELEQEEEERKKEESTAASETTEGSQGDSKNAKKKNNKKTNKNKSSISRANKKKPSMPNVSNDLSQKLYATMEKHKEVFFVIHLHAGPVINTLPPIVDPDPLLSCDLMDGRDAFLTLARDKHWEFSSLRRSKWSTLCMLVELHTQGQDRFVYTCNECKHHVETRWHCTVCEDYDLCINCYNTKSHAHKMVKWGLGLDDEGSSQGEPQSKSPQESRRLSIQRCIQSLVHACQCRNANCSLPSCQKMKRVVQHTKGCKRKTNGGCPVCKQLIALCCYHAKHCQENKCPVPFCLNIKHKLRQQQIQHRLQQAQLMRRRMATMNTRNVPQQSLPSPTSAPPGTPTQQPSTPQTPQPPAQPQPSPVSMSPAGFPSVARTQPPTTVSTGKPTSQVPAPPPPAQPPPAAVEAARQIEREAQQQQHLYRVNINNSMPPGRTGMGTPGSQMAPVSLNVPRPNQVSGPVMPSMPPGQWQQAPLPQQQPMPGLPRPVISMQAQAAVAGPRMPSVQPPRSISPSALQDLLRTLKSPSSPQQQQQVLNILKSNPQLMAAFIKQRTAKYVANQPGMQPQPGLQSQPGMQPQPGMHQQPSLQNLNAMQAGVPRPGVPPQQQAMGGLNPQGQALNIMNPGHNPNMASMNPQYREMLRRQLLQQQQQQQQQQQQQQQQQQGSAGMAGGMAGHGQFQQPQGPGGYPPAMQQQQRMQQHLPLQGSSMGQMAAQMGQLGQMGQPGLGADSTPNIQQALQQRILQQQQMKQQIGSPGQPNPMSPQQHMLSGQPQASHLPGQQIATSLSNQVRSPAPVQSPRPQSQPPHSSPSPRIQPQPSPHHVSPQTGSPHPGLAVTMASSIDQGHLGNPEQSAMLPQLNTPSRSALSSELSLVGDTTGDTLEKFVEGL

FLAG-tagged WT NRF2, stably expressed in A549 (TRE3G-driven, dox-induced) (from UniProt Q16236) Neh4: …>… (F>A; D>A; C>A; L>A); Neh5: …>… (Q>A; D>A; E>A; L>A)
other: log2(fold change) [1]: -3.8 | other: log2(fold change) [2]: -3.2
